# Test results: the nanobody polyreactivity screen of Harvey et al. (2022)
# Test: yeast display, Sf9 membrane polyspecificity reagent, FACS + sequencing; frameworks hold sequencing errors
# In short: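 Genes from sorted yeast were amplified by colony PCR, read by MiSeq 2 × 250 sequencing and filtered on CDR length. These cells carried a synthetic nanobody library in Saccharomyces cerevisiae BJ5465 and were sorted by FACS into low and high (top ~1%) gates on anti-HA and streptavidin fluorescence. Polyreactivity is labelled according to the gate of origin.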
row,Sequence,polyreactivity (PSR sort gate)
1,QVQLVESGGGLVQAGGSLRLSCAASGRTFPGNDMGWYRQAPGKERELVAAISGNGGNTNYADSVKGRFTISRDNAKNTVYLQMNSLKPEDTAVYYCKADVPSDGYPGYPGGFESWGQGTQVTVSS,low polyreactivity
2,QVQLVESGGGLVQAGGSLRLSCAASGSIFVRNTMGWYRQAPGKERELVATISSGGRTNYADSVKGRFTISRDNAKNTVYLQMNSLKPEDTAVYYCNRPRWYGGSPYYYWGQGTQVTVSS,high polyreactivity
3,QVQLVESVGGLVQAGGSLRLSCAASGFIFRKYVMGLYIQAPGKERELVAAITRSCTSTYYADSVKGRFTISRDNAKNTVYLQMNSLKPEDTAVYYCNVGSDGWYYWGQGTQVTVSS,low polyreactivity
4,QVQLVESGGGLVQAGGSLRLSCAASGSTFHYYAMGWYRQAPGKERELVAAISGSGSSTYYADSVKGRFTISRDNAKNTVYLQMNRLKPEDTAVYYCNARGHYPRARFGYKSGSDRYWGQGTQVTVSS,high polyreactivity
5,QVQLVESGGGLVQAGGSLRLSCAASGRIFRYYAMGWYRQAPGKERELVATITSSGGSTFYADSVKGRFTISRDNAKNTVYLQMNSLKPEDTAVYYCAASRASRYFPYDYWGQGTQVTVSS,high polyreactivity
6,QVQLVESGGGLVQAGGSLRLSCAASGSTFSPYAMGWYRQSPGKEMELVAVITSSGGDTYYADSVKGRFTISRDNAKNTVYLQMNSLKPEDTAVYYCAADWWVLGQLWFDYWGQGTQVTVSS,low polyreactivity
7,QVQLVESGGGIVQAGGSLRLSCAASGRTYYYYAMGWYRQAPGKETELVASISWSGGSTYYADSVKGRFTISRDNAKNTVYLQMNSLKPEDTAVYYCNAQYHTYRWLYAVYLSGDYWGQGTQVTVSS,low polyreactivity
8,QVQLVESGGGLVQAGGSLRLSCAASGRIFPSYMGWYRQAPGKERELVARISNTGSTYYADSVKGRFTISRDNAKNTVYIQMNSLKPEDTAVYYCAAVYIFRVFSHPPYDYWGQGTQVTVSS,low polyreactivity
9,QVQLVDSGGGLVQAGGSHRLSCAASGLTFRKYPMGWYRQAPGKERELVATISRNGGSTYYADSVKGRFTISRDNAKNTVYFQMNSLKPEDTAVFYCAADYYNYDYAGYGYWGQVTQVTVSS,high polyreactivity
10,QVQLVESGGGIVQAGGSLRLRCAASGSTFYLNVMGWYRQAPGQERELVAAISSGDGSTYYADSVKGRFTISRDNAKNTVYLQMNSLKPEDTAVYYCAAEPDTEVDYDYWGQGTQVTVSS,low polyreactivity
11,QVQLVESAGGLVQAGGSLLLSCAASGFTFYPYAMGWYRQAPGKERELVAAISNGDSTHYADSVKGRFTISRDNAKNTVYLQMTSQKPEDTAVYYCAAPRYPYRCFYSDYDYWGQGTQVTVSS,low polyreactivity
12,QVQLVESGGGLVQAGGSLRLSCPASGRIFPKNAMGWYRQAPGKERELVAAIDYSDGSTNYADSVKGRFTFSRDTAKNTVYLQMNSLKPDDTAVYYCAIVAVPSYDYWGQGTKVTVSS,low polyreactivity
13,QVQLVESGGGLVQAGGSLRLSCAASGRTFWSNAMGWYRQAPGKERELVADITFSGGRTYYADSVKGRFTISRDNAKNTVYLQMNSLKPEDTAVYYCAASATPSGVGMDYWGQGTQVTVSS,low polyreactivity
14,QVQLVESGGGLVQAGGSRRLSCAASGYSLRIYAMGWYRQAPGTEMELVAAISRSGGRTFYADSVKGRFTISRDNAKNTVFLQMNSLKQEDTAVYYCAADPRCYDTGRMDYWGQGTQVTVSS,high polyreactivity
15,QVQLVESGGGLVQAGGSLRLSCAASGRTFLNYAMGWYRQAPGKEREFVAAITWRVGTTYYADSVKGRFTISRDNAKNTVYLQMNSLKPEDTAVYYCAARRSVGGYGYWGQGTQVTVSS,high polyreactivity
16,QVQLVESGGGLVQAGGSLRLSCAASGSIFVRNTMGWYRQAPGKERELVASIDWSGGITYYADSVKGRFTISRDNAKNTVYLQMNSLKPEDTAVYYCNAVFLYPFNVPTMEYWGQGTQVTVSS,low polyreactivity
17,QVQLEESGGGLVQAGGSLRLSCAASGRTFSRNAMGWYIQAPGKERELVAAISQRGVSTYYADSVKGRFTISRDNAMNTVYLQMNSLKPEDTAVYYCNTRGTYRYDYWGQGTQVTVSS,low polyreactivity
18,QVQLVESGGGLVQAGGSLRLSCAASGSIFVEYAMGWYRQAPGKERELVAAISYSGSSTNYADSVKGRFTISRDNAKNTVYLQMNSLKPEDTAVYYCNADGTGGEQKPYYELDYWGQGTQVTVSS,low polyreactivity
19,QVQLVESGGGLVQAGGSLRLSCAASGSIFGTYAMGWYRQAPGKERELVAAITGRDGITYADSVKGRFTISCDNAKNTVYLQMNSLKPEDTAVYYCAAVSHGVYYQYRRRYYSWGQGTQVTVSS,high polyreactivity
20,QDQIVESGGGVVQAGGSLRLSCASSGRIFYDYLGWNRQAPGKETELDADISSGGSTHYADSVKGRFTISRDNAKNTVYLQMNSLKGEDTAVYYCIAVLVLSYDKDWRLIEMDYWGQGTHVTVSS,low polyreactivity
21,QVQLVESGGGLVQAGGSLRLSCAASGIIFTYNAMGWYRQPPGKERELVAAISASGSSTYYADSVKGRFTISLDNAKNTVYLQMNSLKPEDTAVYYCAARTRRGLARYDYWGQGTQGTVSS,high polyreactivity
22,QVQLVESGGGLVQAGGSLRLSCAASGTIFLANAMGWYRQAPEKERELVAAINSGDNSYYADSVKGRFTISRDNAKITVYLQINSLKPEDTAVYYCAAEYTGYFYAYEYWGQGSQVTVSS,high polyreactivity

row,Sequence,polyreactivity (PSR sort gate)
1,QVQLVESGGGLVQAGGSLRLSCAASGSIFYYYAMGWYRQAPGKERELVAAITYDAGSTYYADSVKGRFTISRDNAKNTVYLQMNSLKPEDTAVYYCATDGIYHWGVYTPYDYWGQGTQVTVSS,low polyreactivity
2,QVQLVESGGGLVQAGGSLRLSCAASGSTFYLNAMGWYRQAPGKERELVAAINGSGGSTYADSVKGRFTISRDNAKNTVYLQMKSLIQEDTAVYYCAADGSGYPGYSYPGKDYDDWGQGTQVNVSS,low polyreactivity
3,QVQLVESGGGLVQAGGSLRLSCAASGRTFHNYAMGRYRQAPGKERELVAAISRGGNTYYADSVKGRFTISRDNSKNTVYLQMNSLKPEDTAVYYCAKDNHFEAYRYDYWGQGTQVTVSS,high polyreactivity
4,EEELVESGGGLVQAGGSLRLSCSASGSTFLVYSMGWYRQAPGKERELVAVITNSTVRTYYADSVKGRFTISRDNAKNTVYLQMDRLKPEDTAVYYCNADKEFAVLGQGMDYWGQGTQVTVSS,low polyreactivity
5,QVQLVESGGGLVQAGGSLRLSCAASGYTFYFYAMGWSRQAPGKERELVAAITGGGTTSYADSVKGRFTISRDNAKNTVYLQMNSLKPEDTAVYYCNVLFADKSDYWGQGSQVTVSS,low polyreactivity
6,QVQLVESGGGLVQAGGSLRLSCAASGSIFPEYAMGWYRQAPGKERELVASISSGGSSTYYADSVKGRFTISRDNAKNTVYLQMNSLKPEDTAVYYCARRRSYKRRFDYWGQGTQVTVSS,low polyreactivity
7,QVQLVESGGGLVQAGGSLRLSCAASGRIFGYYAMGWYRQATGKERELVADITESGTSTYYADSVKGRFTISRDNAKNTVYLQMNSLKPEDTAVYYCAAGYWWRYALYVYWGQGTQVTVSS,low polyreactivity
8,QVQHVESGARLVQAGGSLRLSCAASGSTFYRNTMGWYRQAPGTERELVAAISSGGSTNYADSVTGRFTISRDNAKNTVYLQMNSLKPEDTGVYYCAAAIRVISDGWYYYWYDYWGQGTPVTVSS,high polyreactivity
9,QVQLVESGGGLVQAGGSLRLSCAASGRTFGYYAMGWYRQAPGKEREFVAAISSRGGSTRYADSVKGRFTISRDNAKNTVYLQMNSLKPEDTAVYYCNKGYYRHPDESDYGGQGTQVTVSS,high polyreactivity
10,QVQLVESGGGLVQAGGSLRLSCAASGSIFYNYGMGWYRQAPGKERELVAAIRASGDSTYYADSVKGRFTISRDNAKNTVYLQMNSLKPEDTAVYYCAARPNQSYYGLYFYWGQGTQVTVSS,low polyreactivity
11,QVQLVDSGGGLVQAGGSLRLSCAASGYIFYFNAMGWYRQAPGKEREMVAAISDRDDSTYYADSVKGRFTISRDNAKNTVYLQMNSLKPEDTAVYYCAADGYTYVDDPYDYWGQGTQVTVSS,low polyreactivity
12,QVQLEESCGGLVQAGGSHRLSCAASGSTIYNNAMGWYRQAPRKERELVAAISSGGGITYYADSVKGRFTISRDNAKNSVYLQMNSLKPEDTAVYYCNARRIYLGYNYWGQGTQVTVSS,high polyreactivity
13,QVQLVESGGGLVQAGGSLRLSCAASGSSFDVYTMGWYRQAPGKERELVAAINTGGGSTYYADSVKGRFTISRDNAKNTVYLQMNSLKPEDTAVYYCAASVYHYGPLYYWGQGTQVTVSS,low polyreactivity
14,QVQLVESGGGLVQAGGSLRLICAASGSIFAVNAMGWYRQAPGKERELVAAISRRGGSTYYADSVKGRFTISRDNAKITDYLQMNSLKPEDTAVYYCAKRWKATRARYDYWGQGTQVTVAS,high polyreactivity
15,QVQLVESGGALVQAGGSLRLSCAASGRTFYSYAMGWYRQAPGKERELVAAINRGASTYYADSVKGRFTISRDNAKNTDYFQMKSLKPEDTAFYYCGARLYGRHYGYWGQGTQVTVSS,high polyreactivity
16,QVQLVESGGGLVQAGGSLRLSCAASGLIFAHNTMGWYRQATGKERELVAAISATGDGNTYYADSLKGRFTISRDNAKNTVYLQMNSLKPEDTAVYYCNALYYDYYAEYYGESDYWGQGTQVTVSS,low polyreactivity
17,QVQLVESGGGLVQAGGSLRLSCAASGSIFYHYAMGWYRQAPGKERELVAAISRSGGRTYYADSVKGRFTISRDNAKNTVYLQMNSLKPEDTAVYYCAAGTSWPWYQRDYWGQGTQVTVSS,low polyreactivity
18,QVQLVESGGGLVQAGGSLRLSCAASGFIFPYYAMGLYRQAPGKERELVAAITFSATRTYYADSVKGRFTISRDNAKNTVYLQMNSLKPEDTAVYYCKARGGVYGSYFEFNYWRQGTQVTVSS,low polyreactivity
19,QVQLVESVGGLVQAGGSLPLSCAASGRTFTSYAMGWYRQAPGKERELVAAINYSGGSTYYADSVKGRFTISRDNAKNTVYLQMNSLKPEETAVYYCAKSSHAREYYYWGQGTQVTVSS,low polyreactivity
20,QQQLHESGGGLVQAGGSLRLSCAASGSISQAWYMGWYRQAPGKERELVAAINVGAITYYADIVKGRFSISRDNAKNTVFLPMNSLTPEDTAVYYCAVDQYSEAYYDYWGQGTQATVSS,high polyreactivity
21,QVQLVESGGGLVQAGGSLRLSCAASGFIFGYYAMGWYRQAPGKERELVAAINYNDDSTYYADSVKGRFTISRDNAKNTVYLQMNSLKPEDTAVYYCAARRFWPGNSYYYRYYYWGQGTQVTVSS,low polyreactivity
